Source: patent publication US20240316154A1 (Eli Lilly, published 2024)
Where two headings read alike, the source gives them in different places.

Legend:
[1] = biological target: T1, Rabbit serum albumin (rabbit, UniProt P49065 25-608); test: SPR, SA on chip, 25 C
T1 construct: bought; immobilised on a CM5 chip by amine coupling; also called Rabbit SA
Experimental: (§1) Human SA is obtained from Sigma Aldrich (Cat. No. A8763). […] Mouse SA is obtained from Sigma Aldrich (Cat. No. A3139). Rat SA is obtained from Sigma Aldrich (Cat. No. A4538). Pig SA is obtained from Sigma Aldrich (Cat. No. A4414). […] Cow SA is obtained from Sigma Aldrich (Cat. No. A7030). […] Excess reactive groups on the surfaces (flow cell 1 and 2) are deactivated by injecting 70 μl of 1 M Ethanolamine hydrochloride-NaOH pH 8.5.
(§2) 180 μl of sample are individually injected sequentially across the immobilized SAs on the chip's surface and dissociated for 600 sec at 60 μl/min flow rate at 25° C.

[2] = biological target: T2, Human serum albumin (human, UniProt P02768 25-609); test: SPR, SA on chip, 1:1 fit, 25 C
T2 construct: bought; immobilised on a CM5 chip by amine coupling; also called Human SA
Experimental: as §1, §2

[3] = biological target: T3, Cynomolgus monkey serum albumin (cynomolgus monkey, UniProt A2V9Z4 25-608); test: SPR, SA on chip, 1:1 fit, 25 C
T3 construct: bought; immobilised on a CM5 chip by amine coupling; also called Cyno SA
Experimental: as §1, §2

[4] = biological target: T4, Mouse serum albumin (mouse, UniProt P07724 25-608); test: SPR, SA on chip, 1:1 fit, 25 C
T4 construct: bought; immobilised on a CM5 chip by amine coupling; also called Mouse SA
Experimental: as §1, §2

[5] = biological target: T5, Rat serum albumin (rat, UniProt P02770 25-608); test: SPR, SA on chip, 1:1 fit, 25 C
T5 construct: bought; immobilised on a CM5 chip by amine coupling; also called Rat SA
Experimental: as §1, §2

[6] = biological target: T6, Pig serum albumin (pig, UniProt P08835 25-607); test: SPR, SA on chip, 1:1 fit, 25 C
T6 construct: bought; immobilised on a CM5 chip by amine coupling; also called Pig SA
Experimental: as §1, §2

[7] = biological target: T7, Dog serum albumin (dog, UniProt P49822 25-608); test: SPR, SA on chip, 1:1 fit, 25 C
T7 construct: bought; immobilised on a CM5 chip by amine coupling; also called Dog SA
Experimental: as §1, §2

[8] = biological target: T8, Cow serum albumin (cow, UniProt P02769 25-607); test: SPR, SA on chip, 1:1 fit, 25 C
T8 construct: bought; immobilised on a CM5 chip by amine coupling; also called Cow SA
Experimental: as §1, §2

[9] = biological target: T1, Rabbit serum albumin; test: SPR, SA on chip, 25 C; remark: listed apart in the source
Experimental: as §1, §2

[10] = biological target: IL-2 receptor-dimer pair of the PathHunter IL-2 BioAssay cells; test: cell-based or functional assay
[11] = biological target: T2, Human serum albumin; test: SPR, SA on chip, 1:1 fit, 25 C; remark: listed apart in the source
Experimental: as §1, §2

[12] = biological target: T3, Cynomolgus monkey serum albumin; test: SPR, SA on chip, 1:1 fit, 25 C; remark: listed apart in the source
Experimental: as §1, §2

[13] = biological target: T4, Mouse serum albumin; test: SPR, SA on chip, 1:1 fit, 25 C; remark: listed apart in the source
Experimental: as §1, §2

[14] = biological target: T5, Rat serum albumin; test: SPR, SA on chip, 1:1 fit, 25 C; remark: listed apart in the source
Experimental: as §1, §2

[15] = biological target: T6, Pig serum albumin; test: SPR, SA on chip, 1:1 fit, 25 C; remark: listed apart in the source
Experimental: as §1, §2

[16] = biological target: T7, Dog serum albumin; test: SPR, SA on chip, 1:1 fit, 25 C; remark: listed apart in the source
Experimental: as §1, §2

[17] = biological target: T8, Cow serum albumin; test: SPR, SA on chip, 1:1 fit, 25 C; remark: listed apart in the source
Experimental: as §1, §2

B1: VHH-based fusion of Example 8, VHH fusion 8 (GLP1-(G4Q)5-MC6.1C22.43) (other)
chain: HGEGTFTSDVSSYLEEQAAKEFIAWLVKGGGGGGGQGGGGQGGGGQGGGGQGGGGQEVQLLESGGGLVQPGGSLRLSCAASGRYIDETAVAWFRQAPGKEREFVAGIGGGVDITYYADSVKGRFTISRDNSKNTLYLQMNSLRPEDTAVYYCAARPGRPLITSKVADLYPYWGQGTLVTVSSPP
notes: also called Compound 8; GLP-1-VHH fusion
binding result [1]: no binding (tested: up to 1000 nM)
Kd [2]: 0.15 nM
koff [2]: 0.00011 s⁻¹
kon [2]: 720000 M⁻¹ s⁻¹
Kd [3]: 0.96 nM
koff [3]: 0.00087 s⁻¹
kon [3]: 910000 M⁻¹ s⁻¹
Kd [4]: 18 nM
koff [4]: 0.01 s⁻¹
kon [4]: 560000 M⁻¹ s⁻¹
Kd [5]: 11 nM
koff [5]: 0.0071 s⁻¹
kon [5]: 660000 M⁻¹ s⁻¹
Kd [6]: 27 nM
koff [6]: 0.013 s⁻¹
kon [6]: 490000 M⁻¹ s⁻¹
Kd [7]: 5.4 nM
koff [7]: 0.0038 s⁻¹
kon [7]: 710000 M⁻¹ s⁻¹
Kd [8]: 120 nM
koff [8]: 0.093 s⁻¹
kon [8]: 800000 M⁻¹ s⁻¹

B2: VHH-based fusion of Example 7, VHH fusion 7 (MC6.1C22-(G4Q)5-IL2) (other)
chain: EVQLLESGGGLVQPGGSLRLSCAASGRYIDETAVAWFRQAPGKEREFVAGIGGGVDITYYADSVKGRFTISRDNSKNTLYLQMNSLRPEDTAVYYCAARPGRPLITSKVADLYPYWGQGTLVTVSSGGGGQGGGGQGGGGQGGGGQGGGGQAPQSSSTQQTQLQLEHLLLDLQMILNGINNYKNPKLTRMLTFKFYMPKKATELKHLQCLEEELKPLEEVLNLAQSKNFHLRPRDLISRINVIVLELKGSETTFMCEYADETATIVEFLNRWITFAQSIISTLT
notes: also called Compound 7; VHH-IL-2 fusion
binding result [9]: no binding (tested: up to 1000 nM)
EC50 (nM), PathHunter IL-2 BioAssay [10]: 0.49 nM
Kd [11]: 0.23 nM
koff [11]: 0.00021 s⁻¹
kon [11]: 910000 M⁻¹ s⁻¹
Kd [12]: 0.39 nM
koff [12]: 0.00056 s⁻¹
kon [12]: 1.4e+06 M⁻¹ s⁻¹
Kd [13]: 3.9 nM
koff [13]: 0.0038 s⁻¹
kon [13]: 970000 M⁻¹ s⁻¹
Kd [14]: 3 nM
koff [14]: 0.0029 s⁻¹
kon [14]: 970000 M⁻¹ s⁻¹
Kd [15]: 13 nM
koff [15]: 0.0058 s⁻¹
kon [15]: 450000 M⁻¹ s⁻¹
Kd [16]: 1.8 nM
koff [16]: 0.0016 s⁻¹
kon [16]: 920000 M⁻¹ s⁻¹
Kd [17]: 78 nM
koff [17]: 0.052 s⁻¹
kon [17]: 670000 M⁻¹ s⁻¹
